The results in this text go back to the Immune Epitope Database (IEDB).

pIC50: −log10 of the molar value. Where only a bound is given, the exact number is not on record here.

For one test, the target named is HLA-A*02:01. The experiment in a line: IEDB peptide-MHC binding, purified MHC/competitive/radioactivity; ≥ and ≤ were set here for values at or beyond the usual limits of such assays. The note with it: source organism: Bordetella pertussis.
Turning to ALMLACTGL, the pIC50 was 4.97.
In the case of LAMPWTFHA, the negative-log IC50 (pIC50) is 5.93.
Regarding LLNAGGTLL, the pIC50 was 5.59.
On the same count and under the same terms, under VLAPRLYLT stands 5.10; under YQTYTEWSV, 6.42.

The target of a further test is HLA-B*07:02. The description is as above. The note with it: source organism: Bordetella pertussis.
With APQAAPLSI, the negative-log IC50 (pIC50) is 5.66.
For the sequence SPRRARRAL, the negative-log IC50 (pIC50) is 7.86.

In another test the target is HLA-B*35:01. The test is described as above. The conditions noted are these: source organism: Bordetella pertussis.
Turning to AAGFDPEVQ, the negative logarithm of the IC50 (pIC50) was 4.49.
For the sequence LAAIASAAH, the pIC50 is 4.30.
With LANDGTIVI, the negative logarithm of the IC50 (pIC50) was 5.23.
As for LAPTVGVAF, the pIC50 is 5.12.

A further test has as its target HLA-B*44:03. The test is described as above. The note with it: source organism: Bordetella pertussis.
As for IESKISQSV, the negative logarithm of the IC50 (pIC50) was 4.40.
As for QQVQVLQRQ, the negative logarithm of the IC50 (pIC50) was 4.80.

Another test addresses HLA-B*53:01. Described as above. The note with it: source organism: Bordetella pertussis.
Regarding APQAAPLSI, the negative-log IC50 (pIC50) is 4.37.
Regarding GLYQTYTEW, the pIC50 is 4.16.
For LAWALMLAC, the pIC50 was 5.18.
As for TFTGKVTNG, the pIC50 was 4.40.
On the same count and under the same terms, under TPFDIKLKE stands 4.46; under TPFIIKLKD, at most 4.11.
The same measure, in the same setting: under YYDYEDATF stands 4.16.

The target in another test is HLA-B*57:01. The test is described as above. The conditions noted are these: source organism: Bordetella pertussis.
With GLYQTYTEW, the negative-log IC50 (pIC50) is 4.38.
Take ISVRVHVSK: the pIC50 is 5.56.
Same read-out and setting: under ITNKRAALI stands 4.40.
